Source: patent US20220017635A1 (Kyowa Kirin, published 2022)

Tests used:
[1] = molecular target: T1, huTfR with mouse protease-like domain (human/mouse chimera); experiment: ELISA on immobilized chimeric TfR; grade = binding relative to His-huTfR (++ 0.5 or more, + 0.2 to less than 0.5)
T1 construct: His tag added; also called chimeric protein of human TfR extracellular domain with mouse protease-like domain
T1 chain: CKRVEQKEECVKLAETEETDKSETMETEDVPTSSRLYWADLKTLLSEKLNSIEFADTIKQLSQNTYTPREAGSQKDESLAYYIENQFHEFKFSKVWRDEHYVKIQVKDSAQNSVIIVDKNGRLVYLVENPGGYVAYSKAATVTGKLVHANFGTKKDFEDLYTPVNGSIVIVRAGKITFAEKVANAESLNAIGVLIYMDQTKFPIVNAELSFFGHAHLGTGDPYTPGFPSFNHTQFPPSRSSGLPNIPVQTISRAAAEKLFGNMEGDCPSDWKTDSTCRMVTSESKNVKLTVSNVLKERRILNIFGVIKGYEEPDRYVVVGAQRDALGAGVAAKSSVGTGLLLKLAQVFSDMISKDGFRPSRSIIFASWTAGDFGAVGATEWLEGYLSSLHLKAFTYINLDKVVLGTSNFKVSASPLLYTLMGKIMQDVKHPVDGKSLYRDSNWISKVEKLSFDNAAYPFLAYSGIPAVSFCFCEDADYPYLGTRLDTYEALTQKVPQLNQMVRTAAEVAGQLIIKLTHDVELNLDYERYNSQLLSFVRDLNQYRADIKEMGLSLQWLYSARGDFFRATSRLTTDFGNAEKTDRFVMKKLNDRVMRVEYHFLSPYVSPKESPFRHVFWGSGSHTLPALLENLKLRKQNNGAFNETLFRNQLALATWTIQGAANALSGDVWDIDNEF
Protocol: (§1) ELISA was carried out by the following method. To a 96-well immunoplate (NUNC, Inc.) on which an antigen protein was immobilized, 1% (w/v) BSA-PBS(−) pH 7.0 without KCl (hereinafter referred to as blocking solution, Nacalai Tesque, Inc.) was added to perform blocking at room temperature, and thereafter, the anti-TfR antibody diluted with the same solution was added thereto and a reaction was allowed to proceed at room temperature for 1 hour. Thereafter, washing was performed with 0.05% (w/v)-tPBS (1×) without KCl (pH 7.2) (hereinafter referred to as washing solution, Nacalai Tesque, Inc.), Anti-Human IgG (Fc) Goat IgG Fab″-HRP (IBL, Inc.) diluted with the blocking solution was added thereto, and a reaction was allowed to proceed at room temperature for 1 hour. Thereafter, washing was performed with the washing solution, and 1-Step (registered trademark) Ultra TMB-ELISA Substrate Solution (Thermo, Inc.) was added thereto, and a reaction was allowed to proceed at room temperature. The coloring reaction was stopped by adding a 5 N HCl solution, and an absorbance at a wavelength of 450 nm (reference wavelength: 570 nm) was measured using a plate reader (EPOCH 2: BioTek Instruments, Inc.).
(§2) Further, a value obtained by subtracting the absorbance at the reference wavelength of 570 nm from the absorbance at a wavelength of 450 nm was regarded as the binding activity to any of various types of antigen proteins, and a case where a value obtained by dividing the binding activity to any of various types of chimeric TfR by the binding activity to His-huTfR was 0.5 or more was denoted by ++, a case where the value was 0.2 or more and less than 0.5 was denoted by +, and a case where the value was less than 0.2 was denoted by −.

mouse TfR on CHO cells = molecular target: T2, mouse TfR on CHO cells (mouse, UniProt Q62351 1-763); experiment: flow cytometry on mouse TfR/CHO cells
T2 construct: also called mouse TfR/CHO
Protocol: Subsequently, an epitope analysis for various types of TfR antibodies was carried out.

monkey TfR on CHO cells = molecular target: T3, monkey TfR on CHO cells (monkey); experiment: flow cytometry of monoclonal phage (scFv) on monkey TfR/CHO cells
T3 construct: also called monkey TfR/CHO cells
T3 chain: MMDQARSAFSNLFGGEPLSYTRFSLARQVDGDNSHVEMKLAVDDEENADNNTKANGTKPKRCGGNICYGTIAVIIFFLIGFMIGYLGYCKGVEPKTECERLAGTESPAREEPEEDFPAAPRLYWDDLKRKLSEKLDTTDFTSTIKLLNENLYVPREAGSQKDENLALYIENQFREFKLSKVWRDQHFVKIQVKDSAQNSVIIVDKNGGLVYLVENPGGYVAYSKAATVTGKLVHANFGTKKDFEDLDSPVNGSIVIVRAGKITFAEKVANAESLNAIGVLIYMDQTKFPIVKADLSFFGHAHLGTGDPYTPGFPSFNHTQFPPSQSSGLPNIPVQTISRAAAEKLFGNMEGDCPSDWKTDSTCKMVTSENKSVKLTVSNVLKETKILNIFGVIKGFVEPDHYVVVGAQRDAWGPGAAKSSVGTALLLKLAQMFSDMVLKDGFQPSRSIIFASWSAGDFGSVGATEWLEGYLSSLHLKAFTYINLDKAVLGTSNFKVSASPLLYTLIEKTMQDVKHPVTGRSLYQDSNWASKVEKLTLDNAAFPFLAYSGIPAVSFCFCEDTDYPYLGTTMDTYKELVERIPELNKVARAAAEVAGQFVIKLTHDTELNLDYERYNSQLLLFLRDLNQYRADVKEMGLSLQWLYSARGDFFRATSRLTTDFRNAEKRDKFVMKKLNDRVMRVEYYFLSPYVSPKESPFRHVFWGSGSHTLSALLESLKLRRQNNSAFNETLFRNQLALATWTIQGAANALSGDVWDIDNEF
Protocol: (§3) After the reaction was allowed to proceed under 4° C. for 30 minutes, each well was washed 3 times with PBS-T.

human TfR on cells = molecular target: T4, human TfR on cells (human, UniProt P02786 1-760); experiment: flow cytometry of monoclonal phage (scFv) on human TfR/CHO cells
T4 construct: also called human TfR/CHO; human TfFR/CHO cells
Protocol: as §3

human EGFR on cells = molecular target: T5, human EGFR on cells (human, UniProt P00533 25-1210); experiment: flow cytometry on OE21 cells; x axis PE-A [E]
T5 construct: also called membrane-associated EGFR on OE21 cells

[2] = molecular target: T6, huTfR with mouse apical domain (human/mouse chimera, UniProt P02786 89-760); experiment: ELISA on immobilized chimeric TfR
T6 construct: His tag added; also called chimeric protein of human TfR extracellular domain with mouse apical domain
T6 chain: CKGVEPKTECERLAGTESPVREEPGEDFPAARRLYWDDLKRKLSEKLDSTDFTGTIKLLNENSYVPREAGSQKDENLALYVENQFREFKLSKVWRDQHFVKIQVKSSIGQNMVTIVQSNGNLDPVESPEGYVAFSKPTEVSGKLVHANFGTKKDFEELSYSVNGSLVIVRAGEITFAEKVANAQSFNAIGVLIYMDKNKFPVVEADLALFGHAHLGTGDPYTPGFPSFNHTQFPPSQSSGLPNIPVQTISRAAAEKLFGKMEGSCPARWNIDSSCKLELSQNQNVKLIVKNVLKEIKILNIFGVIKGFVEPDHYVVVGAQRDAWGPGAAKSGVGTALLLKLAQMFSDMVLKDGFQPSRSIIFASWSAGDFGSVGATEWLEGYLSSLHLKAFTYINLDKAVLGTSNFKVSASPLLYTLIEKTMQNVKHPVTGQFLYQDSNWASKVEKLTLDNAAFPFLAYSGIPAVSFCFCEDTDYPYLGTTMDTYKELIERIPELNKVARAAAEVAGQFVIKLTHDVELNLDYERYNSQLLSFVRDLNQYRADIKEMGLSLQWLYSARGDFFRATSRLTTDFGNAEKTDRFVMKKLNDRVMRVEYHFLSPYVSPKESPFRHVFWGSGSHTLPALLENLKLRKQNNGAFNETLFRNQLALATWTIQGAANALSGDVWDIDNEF
Protocol: as §1, §2

chimeric TfR A02 = molecular target: T7, chimeric TfR A02 (human/mouse chimera, UniProt P02786 89-760); experiment: ELISA on immobilized chimeric TfR
T7 construct: also called D352S-S355A-D356R-K358N
T7 chain: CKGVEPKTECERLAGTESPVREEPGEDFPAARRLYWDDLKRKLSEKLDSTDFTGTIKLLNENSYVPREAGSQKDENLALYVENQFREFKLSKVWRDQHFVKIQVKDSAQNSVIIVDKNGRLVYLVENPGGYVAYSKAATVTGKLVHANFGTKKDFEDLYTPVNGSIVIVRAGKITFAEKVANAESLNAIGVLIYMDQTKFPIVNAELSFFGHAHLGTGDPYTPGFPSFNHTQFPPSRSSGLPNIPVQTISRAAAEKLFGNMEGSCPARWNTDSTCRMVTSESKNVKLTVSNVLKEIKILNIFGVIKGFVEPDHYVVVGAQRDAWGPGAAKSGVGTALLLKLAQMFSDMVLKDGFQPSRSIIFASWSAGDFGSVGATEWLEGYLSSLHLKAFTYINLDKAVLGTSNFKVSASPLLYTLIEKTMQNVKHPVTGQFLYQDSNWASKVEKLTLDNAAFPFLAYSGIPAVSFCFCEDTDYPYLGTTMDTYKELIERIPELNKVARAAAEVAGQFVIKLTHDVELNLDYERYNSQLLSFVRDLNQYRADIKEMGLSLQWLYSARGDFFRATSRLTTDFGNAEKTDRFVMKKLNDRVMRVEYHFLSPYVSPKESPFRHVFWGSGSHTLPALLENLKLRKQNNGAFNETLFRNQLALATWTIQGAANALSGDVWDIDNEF
Protocol: as §1, §2

chimeric TfR A07 = molecular target: T8, chimeric TfR A07 (human/mouse chimera, UniProt P02786 89-760); experiment: ELISA on immobilized chimeric TfR
T8 construct: also called M365L-V366E-E369Q
Protocol: as §1, §2

chimeric TfR A05 = molecular target: T9, chimeric TfR A05 (human/mouse chimera, UniProt P02786 89-760); experiment: ELISA on immobilized chimeric TfR; grade = binding relative to His-huTfR (++ 0.5 or more, + 0.2 to less than 0.5)
T9 construct: also called P249S-L274F
Protocol: as §1, §2

chimeric TfR A04 = molecular target: T10, chimeric TfR A04 (human/mouse chimera, UniProt P02786 89-760); experiment: as above
T10 construct: also called D245E-K261E-D356R
Protocol: as §1, §2

chimeric TfR A14 = molecular target: T11, chimeric TfR A14 (human/mouse chimera, UniProt P02786 89-760); experiment: as above
T11 construct: also called D204Q-K205S-E369Q
Protocol: as §1, §2

chimeric TfR A03 = molecular target: T12, chimeric TfR A03 (human/mouse chimera, UniProt P02786 89-760); experiment: as above
T12 construct: also called D245E-K261E
Protocol: as §1, §2

B1: R327 (antibody, V domains shown)
VH: EVQLVETGGGLVQPGGSLRLSCAASGFSFDKYTMNWVRQAPGKGLEWVSVISNGGVSTDYADSVKGRFTVSRDNSKNTLYLQMNSLRAEDMATYYCARASQPWLYRTGADVWGQGTMVTVSS
VL: not shown
notes: also called anti-TfR antibody R327
[1]
  ratio of ELISA binding activity (A450-A570) to chimeric TfR over that to His-huTfR: ≥ 0.5 ratio
Mouse TfR on CHO cells
  binding result: no binding

B2: TfR1071 (antibody, V domains shown)
VH: YVQLVESGGGLVQPGGSLRLSCAASGFSFDKYTMNWVRQAPGKGLEWVSVISNGGVSTDYADSVKGRFTVSRDNSKNTLYLQMNSLRAEDMATYYCARASQPWLYRTGADVWGQGTLVTVSS
VL: not shown
notes: also called anti-TfR antibody TfR1071
[1]
  ratio of ELISA binding activity (A450-A570) to chimeric TfR over that to His-huTfR: ≥ 0.5 ratio
Mouse TfR on CHO cells
  binding result: no binding

B3: PSM4072 (antibody, V domains shown)
VH: EVQLVETGGGLVQPGGSLRLSCTASGFTFESHAMYWVRQAPGKGLEWVSGISNGGSSTEYADSVRGRFTISRDNSKNTVYLQMNSLRAEDTAVYYCARPRSPYLFYDAAGVWGQGTLVTVSS
VL: not shown
notes: as IgG it has the constant region of human IgG4PE or IgG4PE R409K; also called anti-TfR antibody PSM4072
Monkey TfR on CHO cells
  binding result: binds
Human TfR on cells
  binding result: binds

B4: cyno163 (antibody, V domains shown)
VH: EVQLVESGGGLVQPGGSLRLSCAASGFTFSTYAMSWVRQAPGKGLEWVSGISNGGSSTEYADSVRGRFTISRDNSKNTVYLQMNSLRAEDTAVYYCARPRSPYLFYDAAGVWGQGTMVTVSS
VL: not shown
notes: as IgG it has the constant region of human IgG4PE or IgG4PE R409K; also called anti-TfR antibody cyno163
Monkey TfR on CHO cells
  binding result: binds
Human TfR on cells
  binding result: binds

B5: KME09 (antibody, V domains shown)
VH: QVQLVQSGAEVKKPGSSVKVSCKASGGTFSSFAWGWVRQAPGQGLEWMGEIRPGFGTEIYAQNFQDRVTFITDEATSTTYMELSSLKSEDTAVYYCARGLLRSGYIDNPCDIWGQGTMVTVSS
VL: DIQMTQSPSSLSASVGDRVTITCRASQGISSWLAWYQQKPEKAPKSLIYAASSLQSGVPSRFSGSGSGTDFTLTISSLQPEDFATYFCQQYYNYPYTFGQGTKLEIK
notes: IgG4PE or IgG4PE R409K; also called anti-EGFR antibody KME09
Human EGFR on cells
  binding result: binds

B6: TfR1007 (antibody, V domains shown)
VH: EVQLVESGGGLVQPGGSLSLSCAASGFSFKGYSMSWVRQAPGKGLEWVSSLSNGGGSSYYADSVKGRFTISRDNSKNTLYLQMNSLRAEDTAVYYCAKTLGAYYIKSAMDVWGQGTTVTVSS
VL: not shown
notes: also called anti-TfR antibody TfR1007
[1]
  ratio of ELISA binding activity (A450-A570) to chimeric TfR over that to His-huTfR: ≥ 0.5 ratio

B7: cyno292 (antibody, V domains shown)
VH: QVQLVQSGGGLVKPGGSLRISCTTSGFPFDGYTMTWVRQAPGKGLEWVSSISNGGSTIFVSDSVRGRFTISRDNAKNSLYLQMNNVGAEDTAVYYCARARDAYGWTLPSDIWGQGTMVTVSS
VL: not shown
notes: also called anti-TfR antibody cyno292
[2]
  ratio of ELISA binding activity (A450-A570) to chimeric TfR over that to His-huTfR: < 0.2 ratio
Chimeric TfR A02
  ratio of ELISA binding activity (A450-A570) to chimeric TfR over that to His-huTfR: < 0.2 ratio
Chimeric TfR A07
  ratio of ELISA binding activity (A450-A570) to chimeric TfR over that to His-huTfR: < 0.2 ratio
Monkey TfR on CHO cells
  binding result: binds
Chimeric TfR A05
  ratio of ELISA binding activity (A450-A570) to chimeric TfR over that to His-huTfR: ≥ 0.5 ratio
Chimeric TfR A04
  ratio of ELISA binding activity (A450-A570) to chimeric TfR over that to His-huTfR: ≥ 0.5 ratio
Chimeric TfR A14
  ratio of ELISA binding activity (A450-A570) to chimeric TfR over that to His-huTfR: ≥ 0.5 ratio
[1]
  ratio of ELISA binding activity (A450-A570) to chimeric TfR over that to His-huTfR: ≥ 0.5 ratio
Chimeric TfR A03
  ratio of ELISA binding activity (A450-A570) to chimeric TfR over that to His-huTfR: ≥ 0.5 ratio
Mouse TfR on CHO cells
  binding result: no binding
